In general, half-life refers to the time in which the quantity being followed falls by half. A high value points to slow loss.

This note sets out measurements from patent US20240190987A1, “Engineered EpCam Binding Antibodies” (TigaTX, priority 2021, published 2024).

The nature of data set [1]: Differential scanning fluorimetry (DSF) melting temperature. It is filed as physicochemical. The method, then: DSF was performed on a LC480 Lightcycler Instrument II (Roche). Purified recombinant protein was diluted to 5 μM in DSF buffer (PBS, pH 7.4, Sypro Orange 5×) with small molecule (10 μM VTX) or vehicle (0.05% DMSO) and then heated with a temperature gradient (0.01° C./s) from 25 to 95° C. Data were continuously acquired at ˜465 nm (excitation) and ˜580 nm (emission). Data was analyzed to generate first derivative curves in which the curve maximum was reported as the melting temperature of the protein.

The test system of the next data set is human PBMCs. Briefly: Surface staining of human PBMCs by flow cytometry. The note with it: TCRab+, CD4+ and CD8+ subsets. It is filed as cell-based. The protocol: (§1) FIG. 32 depicts Ab1070 binding to human and cynomolgus macaque PBMCs. Binding was measured by flow cytometry using a secondary fluorescent antibody (IgG-PE). T-cell subsets were identified using additional fluorescent antibodies against TCRab, CD4 and CD8 and gated prior to quantifying the median fluorescence intensity (MFI) of the IgG-PE channel. […] The assay was performed with up to 10 μM antibodies (titrated as indicated).
(§2) Peripheral blood mononuclear cells (PBMCs) from healthy cynomolgus macaques (Chinese origin) were obtained commercially (iQ Biosciences, Berkeley, CA). Peripheral blood mononuclear cells (PBMCs) from healthy human donors were isolated from leukapheresis packs (leukopaks) from deidentified healthy adult donors (StemCell Technologies, Vancouver, BC). Human PBMCs were isolated using the EasySep Direct Human PBMC Kit (StemCell Technologies) then cryopreserved in DMEM with 10% FBS and 10% DMSO. Frozen PBMC cryovials were thawed on the day of experiments and washed complete growth media (DMEM+10% FBS+1% penicillin/streptomycin). Cells were resuspended in growth media and transferred to a 96-well U-bottom plate at 55,000 cell/well. Human TruStain FcX (Fc Receptor Blocking Solution; Catalog number 422302; BioLegend, San Diego, CA) was added at a 1:20 final dilution of the manufacturer's stock and incubated for 10 minutes at room temperature in a volume of 25 μL. […]
(A flow cytometer gives signals particle by particle.)

The next data set deals with cynomolgus macaque PBMCs. Briefly: Surface staining of cyno PBMCs by flow cytometry. It is filed as cell-based. The note with it: TCRab+, CD4+ and CD8+ subsets. The method, then:
as §1, §2

Data set [2] in a line: Ab0640 pharmacokinetics in mice. The conditions noted are these: 6.7 mg/kg single IV, C57BL/6 mice. It is filed as in vivo. The protocol:
Plasma samples were collected at 30 min, 24 hr, 72 hr, and 168 hr and concentrations of the antibodies were determined by ELISA.
Female […] mice (age 10-12 weeks) were distributed into 2 groups (n=5 per group). Antibodies were diluted in sterile PBS and injected intravenously at 6.7 mg/kg. Blood (55 μL from the retroorbital sinus) was sampled serially at 4 time points (30 min, 1 day, 3 days, 7 days), processed to plasma, diluted 1:10 in 50% glycerol+PBS, then cryopreserved. Plasma concentrations were quantified using an anti-human IgG sandwich ELISA that was developed and qualified in-house. The capture antibody for the ELISA was goat anti-human IgG (Cat. No. 2049-01; Southern Biotech, Birmingham, AL) coated on 96-well Nunc-Immuno Maxisorp plates (Thermo Fisher Scientific) at […] for 1 hr at 37° C. The detection antibody was mouse anti-human IgG Fc-HRP (Cat. No. 9042-05; Southern Biotech, Birmingham, AL) at 1:32,000 dilution of the manufacturer stock. ELISA coating, blocking, wash, and TMB substrate buffers from BioLegend were used according to the manufacturer's instructions. Non-compartmental pharmacokinetic parameters were calculated using the PKNCA package for R (doi: 10.1007/s10928-015-9432-2).

Another data set deals with HCT-116-NR target cells. Kind of data set: Real-time TDCC by time-lapse microscopy. It is filed as cell-based, human. The note with it: 10 nM antibodies, 250 nM indinavir, 5 μM quencher, 120 hours. The method, then:
FIG. 42 depicts real-time measurement of TDCC in a co-culture assay for three exemplary T-LITE pairs. […] T-LITE antibodies were held constant at 10 nM with indinavir (250 nM) added to some wells, as indicated (“ON”). In some wells, a conventional TCE (Ab1007) was included as a positive control. In some wells, an anti-indinavir quencher antibody (5 μM) was added at various time points, as indicated (“OFF”). […] In some wells, no indinavir was added (“Always OFF”). Killing was interrupted by the addition of the quencher at earlier time points (“OFF at” 30 min, 24 h, 44 h, or 49 h). Killing occurred at levels similar to the no-quencher condition (“Always ON”) if the quencher was added at the latest time point (68 h). The assay was performed with human T-cells and HCT-116-NR target cells for 120 hours.
The kinetics of TDCC in a co-culture assay were measured using time-lapse microscopy (FIG. 42). […] To test how T-LITE-activated T-cells respond to the removal of indinavir, an “anti-indinavir quencher” was used. […]
Co-cultures of magnetically isolated human T-cells and target cells were prepared as described above for TDCC assays, with some modifications. […] The IncuCyte software was used to quantify Normalized target cell abundance (red object area per image, normalized to T=0 h).

The next data set in a line: UPLC-SEC retention time. It is filed as physicochemical. The note with it: Table 13. The method, then:
LS2B antibody clones derived from the phage display campaign were profiled by analytical UPLC-SEC using a Thermo Vanquish Flex HPLC with a MabPAC 4.6×150 mm SEC column equilibrated in 1×PBS-HCl at pH 7.0. Retention time of each clone was compared to Ab0254 to assess overall developability.
UPLC-SEC was performed on a Thermo Scientific Vanquish Flex UHPLC system. Protein was diluted to 1-5 μM in HBS buffer and then 1.5-10 μL of sample was injected onto a MabPAC 4.6×150 mm in 1×PBS-HCl at pH 7.0. Data were continuously acquired at ˜280 nm and processed on the Chromeleon 7 software (Thermo Scientific). For the low pH hold assay, prior to injection on the UHPLC, samples were held at pH 3.5 for 1 hour followed by neutralization. For the complex assembly assay, the MabPAC 4.6×150 mm column was pre-equilibrated with 1×PBS-HCl at pH 7.0 and 10 μM Indinavir.

B1: hSP34v68: humanized SP34 anti-CD3 clone v68, scFv-Fc (antibody)
heavy: EVQLVESGGGLVQPGGSLRLSCAASGFTFNTYAMNWVRQAPGKGLEWVARIRSKYNNYATYYADSVKGRFTISRDDSKSILYLQMNSLRAEDTAVYYCVRHGNFGNSYVSWFAYWGQGTLVTVSSGGGGSGGGGSGGGGSDIQVTQSPSSLSASVGDRVTITCRSSTGAVTTSNYANWVQQKPGKAFKGLIGGTNKLASGVPSRFSGSLSGDDATLTISSLQPEDFATYYCALWYSNLWVFGQGTKLEIKGGGGSDKTHTCPPCPAPEAAGGPSVFLFPPKPKDTLMISRTPEVTCVVVDVSHEDPEVKFNWYVDGVEVHNAKTKPREEQYNSTYRVVSVLTVLHQDWLNGKEYKCKVSNKALGAPIEKTISKAKGQPREPQVYTLPPSRDELTKNQVSLTCLVKGFYPSDIAVEWESNGQPENNYKTTPPVLDSDGSFFLYSKLTVDKSRWQQGNVFSCSVMHEALHNHYTQKSLSLSPGK
modifications: REGION 1..482: note = Ab0640 HC
notes: humanized SP34 anti-CD3 clone v68, scFv-Fc
On to B1, for which the “TM (° C.)” value in data set [1] (DSF, hSP34v68 R1 variants (Table 23)) came to 60.7 °C. Besides, the “binding to human PBMC T-cell subsets” value in the data set with human PBMCs was “Detectable and saturable binding”. In addition, the “binding to cyno PBMC T-cell subsets” value in the data set with cynomolgus macaque PBMCs is “Detectable and saturable binding”. The half-life in data set [2] was 112 h.

B2: Ab1007: conventional TCE positive control (antibody)
heavy 1: EVQLVQSGPGLVQPGGSVRISCAASGYTFTNYGMNWVKQAPGKGLEWMGWINTYTGESTYADSFKGRFTFSLDTSASAAYLQINSLRAEDTAVYYCARFAIKGDYWGQGTLLTVSSASTKGPSVFPLAPSSKSTSGGTAALGCLVKDYFPEPVTVSWNSGALTSGVHTFPAVLQSSGLYSLSSVVTVPSSSLGTQTYICNVNHKPSNTKVDKKVEPKSCDKTHTCPPCPAPEAAGGPSVFLFPPKPKDTLMISRTPEVTCVVVDVSHEDPEVKFNWYVDGVEVHNAKTKPREEQYNSTYRVVSVLTVLHQDWLNGKEYKCKVSNKALGAPIEKTISKAKGQPREPMVFDLPPSREEMTKNQVSLWCMVKGFYPSDIAVEWESNGQPENNYKTTPPVLDSDGSFFLYSKLTVDKSRWQQGNVFSCSVMHEALHNHYTQKSLSLSPGKHHHHHH
heavy 2: EVQLVESGGGLVQPGGSLRLSCAASGFTFNTYAMNWVRQAPGKGLEWVARIRSKYNNYATYYADSVKGRFTISRDDSKSILYLQMNSLRAEDTAVYYCVRHGNFGNSYVSWFAYWGQGTLVTVSSGGGGSGGGGSGGGGSDIQVTQSPSSLSASVGDRVTITCRSSTGAVTTSNYANWVQQKPGKAFKGLIGGTNKLAPGVPSRFSGSLSGDDATLTISSLQPEDFATYYCALWYSNLWVFGQGTKLEIKGGGGSDKTHTCPPCPAPEAAGGPSVFLFPPKPKDTLMISRTPEVTCVVVDVSHEDPEVKFNWYVDGVEVHNAKTKPREEQYNSTYRVVSVLTVLHQDWLNGKEYKCKVSNKALGAPIEKTISKAKGQPREPQVYTLPPIRELMTSNQVSLSCAVKGFYPSDIAVEWESNGQPENNYKTTPPVLDSDGSFFLVSKLTVDKSRWQQGNVFSCSVMHEALHNHYTQKSLSLSPGK
light: DIQMTQSPSSLSASVGDRVTITCRSTKSLLHSNGITYLYWYQQKPGKAPKLLIYQMSNLASGVPSRFSSSGSGTDFTLTISSLQPEDFATYYCAQNLEIPRTFGQGTKVELKRTVAAPSVFIFPPSDEQLKSGTASVVCLLNNFYPREAKVQWKVDNALQSGNSQESVTEQDSKDSTYSLSSTLTLSKADYEKHKVYACEVTHQGLSSPVTKSFNRGEC
modifications: REGION 1..452: note = Ab1007 Knob HC; REGION 1..482: note = Ab1007 Hole HC; REGION 1..219: note = Ab1007 Knob LC
notes: conventional TCE positive control
Regarding B2, the “real-time TDCC of HCT-116-NR target cells” value with HCT-116-NR target cells is “depleted of target cells”.

B3: Ab0637: LS2B; HC: V29F+M100eL+M100hL on Ab0596; parent of R4b (antibody, V domains shown)
VH: EVQLVESGGGLVQPGGSLRLSCAASGFDFSSYSIHWVRQAPGKGLEWVASISPYYGSTYYADSVKGRFTISADTSKNTAYLQMNSLRAEDTAVYYCARYYEWYKYSLYLGSLGFDYWGQGTLVTVSS
VL: DIQMTQSPSSLSASVGDRVTITCRASQSVSSAVAWYQQKPGKAPKLLIYSASSLYSGVPSRFSGSRSGTDFTLTISSLQPEDFATYYCQQGGYSLITFGQGTKVEIK
As to B3, the “SEC RT” value in “UPLC-SEC retention time” came to 17.205 min. For the same molecule, in data set [1] (Table 13), the “TM (° C.)” value stood at 78.3 °C.
